# Results published in article PMC2635704.
# Molecular target: BjVIII, myotoxic Lys49-PLA2 from Bothrops jararacussu venom (Bothrops jararacussu)
# Experiment: tricine SDS-PAGE under non-reducing conditions
substance,measurement,value
"BjVIII, myotoxic Lys49-PLA2 from Bothrops jararacussu venom (natural protein)",stoichiometry N,2
